Assay results: patent publication US20090291088A1, “THERAPEUTIC COMBINATIONS OF ANTI-IGF-1R ANTIBODIES AND OTHER COMPOUNDS” (Biogen Idec MA Inc., priority 2008, published 2009)

B1: M12-E01.G4.P: full-length human IgG4.P version of Fab M12-E01 (antibody, V domains shown)
VH: EVQLLESGGGLVQPGGSLRLSCAASGFTFSPYSMLWVRQAPGKGLEWVSSIGSSGGSTRYADSVKGRFTISRDNSKNTLYLQMNSLRAEDTAMYYCARVRGILHYDILIGRNLYYYYMDVWGKGTTVTVSS
VL: QYELTQPPSVSEAPRQRVTISCSGSSSNIGNNAINWYQQLPGKPPKLLIYYDDLLPSGVSDRFSGSKSGTSGSLAISGLQSEDEADYYCAAWDDNLNGVIFGGGTKLTVL
B2: M12-G04.G4.P: full-length human IgG4.P version of Fab M12-G04 (antibody, V domains shown)
VH: EVQLLESGGGLVQPGGSLRLSCAASGFTFSKYTMHWVRQAPGKGLEWVSSIVSSGGWTDYADSVKGRFTISRDNSKNTLYLQMNSLRAEDTAVYYCARDRSIAAAGTGWSVSFVDWFDPWGQGTLVTVSS
VL: DIQMTQSPLSLSASVGDRVTITCRASQSINGYLNWYQQKPGKAPNLLIYATSSLQSGVPSRFSGSGSGTDFTLTISSLQPEDFATYYCQQSYSTPPYTFGQGTKLEIK
B3: M14-C03.G4.P: full-length human IgG4.P version of Fab M14-C03 (antibody, V domains shown)
VH: EVQLLESGGGLVQPGGSLRLSCAASGFTFSKYMMSWVRQAPGKGLEWVSYISPSGGLTWYADSVKGRFTISRDNSKNTLYLQMNSLRAEDTAVYYCARDGARGYGMDVWGQGTTVTVSS
VL: DIQMTQSPATLSLSPGERATLSCRASQSVSSYLAWYQQKPGQAPRLLIYDASNRATGIPARFSGSGSGTDFTLTISSLEPEDFAVYYCQQRSNWPPEVTFGPGTKVDIK
B4: Fab M14-B01: human anti-human IGF-1R Fab from phage display library; VH SEQ ID NO:20, VL SEQ ID NO:83 (antibody, V domains shown)
VH: EVQLLESGGGLVQPGGSLRLSCAASGFTFSNYHMAWVRQAPGKGLEWVSVISPTGGRTTYADSVKGRFTISRDNSKNTLYLQMNSLRAEDTATYYCARAGYSYGYGYFDYWGQGTLVTVSS
VL: DIQMTQFPATLSVSPGERATLSCRASQSVMRNLAWYQQKPGQPPRLLIYGASKRATGIPARFSGSGSGTAFTLTISNLEPEDFAVYYCHQRSTWPLGTFGPGTKLEAK
modifications: Antibody variable heavy chain sequence; Antibody variable light chain sequence
B5: Fab M12-G04: human anti-human IGF-1R Fab from phage display library; VH SEQ ID NO:9, VL SEQ ID NO:73 (antibody, V domains shown)
VH: B2 VH
VL: B2 VL
modifications: Antibody variable heavy chain sequence; Antibody variable light chain sequence

What was measured:
IGF-1R = biological target: T1, IGF-1R (Homo sapiens, UniProt P08069); experiment: Ligand blocking assay (RIA): 125I-IGF-1 / 125I-IGF-2 binding to immobilized IGF-1R; conditions: for blocking of IGF-1 and IGF-2 binding to IGF-1R: 100 nM-0.01 nM antibody, IGF-1R-Fc; for IGF Blocking IGF-1 / IGF Blocking IGF-2: Fabs; for IGF Blocking IGF-1: 125I-IGF-1; for IGF Blocking IGF-2: 125I-IGF-2
T1 construct: human IGF-1R(1-903)-Fc (denoted hIGF-1R-Fc, generated by Biogen Idec)
From the text: Ligand blocking assay (RIA). […] Insulin (Arg-Insulin, Cat #01-207) was purchased from Upstate Cell Signaling Solutions (Lake Placid, N.Y. (now part of Millipore, Concord, Mass. (USA)). ^125I-rhIGF-1 (Cat # IM172), ^125I-rhIGF-2 (Cat# IM238) and ^125I-rhInsulin (Cat# IM166) were purchased from Amersham Biosciences (Piscataway, N.J.). AffiPure goat anti-human IgG, Fcγ fragment specific antibodies (Cat #109-005-098, Jackson ImmunoResearch, West Grove, Pa.) was used for IGF-1R-Fc capture. As detection antibody, goat anti-mouse IgG HRP (Cat #1030-05, Southern Biotech Birmingham, Ala.) was used.
Human insulin receptor α-subunit specific antibodies, Clone 83-14, (Cat #AHR0221, Biosource International, Inc., Camarillo, Calif.) and the 47-9 (Cat #E55502M, Biodesign International, Saco, M E) were used as positive controls blocking of insulin-insulin receptor binding experiments. Recombinant IGF-1R-Fc fusion protein was produced at Biogen Idec (Cambridge, Mass.).
As isotype matched mouse negative control antibodies, 2B8 (murine α-CD20.1gG,) and 2B8 mkm.G2a (murine α-CD20 MAb, IgG2a, Biogen Idec, Lot #NB3304-87, San Diego, Calif.) were used. The negative control for Fabs was R001-1B provided by Christilyn Graff (Biogen Idec, Cambridge, Mass.). PBS used in buffers was from BioWhittaker (Cat. # 17-513F, Walkersville, Md.).
Recombinant human IGF-1R (Histidine tagged version) or IGF-1R-Fc was coated onto IMMULON2 HB (high binding) Removawell strips (Dynex Technologies, Inc., cat. #6302) diluted with carbonate coating buffer pH 9.5 to a concentration of 250 ng/well. After overnight incubation at 4° C., the wells were washed three times with washing buffer (0.05% Tween 20/PBS) then blocked with blocking buffer (3% BSA/PBS) for one hour at room temperature. The blocking buffer was removed and the wells washed three more times. Antibody, Fab, or ligand preparations were diluted to desired concentration with dilution buffer (1% BSA/0.05% Tween 20/PBS) and plated at 50 μl per well in duplicate. After 45 minutes at room temperature, 100,000 cpm of either [125I] rhIGF-1 or [125I] rhIGF-2 in 50 μl dilution buffer was added per well. This was incubated at room temperature for one more hour. The wells were washed again three more times and left liquid free after the last wash. The air-dried wells were counted with the Isodata Gamma Counter.
Alternatively, Fabs were evaluated by a modified capture assay, where the IGF-1R-Fc was captured using anti-human IgG immobilized to a plate. Immobilization was carried out by overnight incubation of goat anti-human IgG, Fcγ fragment specific antibody (200 ng/well) in carbonate coating buffer. The wells were washed, blocked and 250 ng of IGF-1R-Fc was added per well.
The ligand blocking ability of the anti-IGF-1R antibody was determined by a solid phase RIA capture method as described in Example 3. […] After 1 hour of incubation at room temperature, the wells were washed and counted for bound radioactivity by a Gamma Counter. An isotype matched negative antibody control, IDEC-151 (human G4), was used. Percent (%) inhibition was calculated as =[1−(Ave.CPM with Ab)/(Ave.CPM with buffer)]×100%.

IGF-1R phosphorylation = biological target: T2, IGF-1R phosphorylation (Homo sapiens, UniProt P08069); experiment: Inhibition of IGF-1 and IGF-2 mediated IGF-1R phosphorylation in MCF-7 cells (ELISA); type: cell-based; conditions: Fabs, MCF-7; for Inhibition of IGF-1R Phosphorylation IGF-1: IGF-1 stimulated; for Inhibition of IGF-1R Phosphorylation IGF-2: IGF-2 stimulated
T2 construct: wild type IGF-1R expressed on MCF-7 tumor cells; endogenous in cells; host or cells: MCF-7
Protocol: Cell lines: IGF1R expressing human breast carcinoma cell line MCF-7 (NCI) were maintained at 37° C. and 5% CO2 in MEM eagle (ATCC) containing 10% FBS, 1× non-essential amino acids, 2 mM L-glutamine, 1 mM sodium pyruvate and 1000 U/ml penicillin and streptomycin. Cells were sub-cultured twice weekly for maintenance and assay, and used with a maximum of 12 passages.
MCF-7 cells were plated in 2 ml growth media at 2×10^5 to 4.0×10^5 cells/well in Ploy-D-Lysine coated 12 well plates (BD Biosciences, #35-6470) and cultured at 37° C., 5% CO2. At 48 hours, media removed and cells serum starved overnight at 37° C., 5% CO2 Serum free media was removed and control or test antibodies at indicated concentration were added in 350 ul of fresh serum free media and incubated for 1 hour at room temperature, or alternately at 37° C. Fabs were tested at 200 nM, 20 nM and 2 nM concentration and the mAbs were tested at 67, 6.7 and 0.67 nM. The commercial anti-IGF-1R control antibody used was αIR3 (EMD biosciences, Oncogene Research products, #D27249). […] Ligand was incubated at […] for 37° C. antibody experiments. Cells were lysed in 1× cell lysis buffer (Cell Signal Technologies, #9803) with 1 mM PMSF for 1 hour at room temperature.
Cell lysates were added to ELISA plates pre-coated with IGF-1Rp antibody (Clone 1-2, Biosource International, #AHR0361) and incubated for 2 hours. Following which plates were washed and the plate bound phosphorylated receptor was detected with the biotin labeled anti-phosphotyrosine antibody 4G10 (Catalog #16-103, Upstate Cell Signaling Solutions (Lake Placid, N.Y. (now part of Millipore, Concord, Mass. (USA)) and streptavidin-HRP (BD Pharmingen, #554066). Assay is developed by addition of TMB substrate (Kierkegaard & Perry, #50-76-00) and color stopped by addition of […] (LabChem, Cat#LC25830-1). Optical density is measured at 450 nm using a Molecular Devices plate reader and percent inhibition over the ligand control is calculated for each antibody-ligand sample.
The effect of human anti-IGF-1R antibodies on IGF-1R signaling was evaluated using MCF-7 cells (human breast adenocarcinoma cells).

Molecule | blocking of IGF-1 and IGF-2 binding to IGF-1R (IGF-1R) | IGF Blocking IGF-1 (IGF-1R) | IGF Blocking IGF-2 (IGF-1R) | Inhibition of IGF-1R Phosphorylation IGF-1 (IGF-1R phosphorylation) | Inhibition of IGF-1R Phosphorylation IGF-2 (IGF-1R phosphorylation)
B1 | block both IGF-1 and IGF-2 binding | – | – | – | –
B2 | block both IGF-1 and IGF-2 binding | – | – | – | –
B3 | blocked only IGF-2 binding | – | – | – | –
B4 | – | ++ (>30%@1ug/ml) | ++ (>30%@1ug/ml) | ++ (>30%@1ug/ml) | ++ (>30%@1ug/ml)
B5 | – | + (>30%@10ug/ml) | + (>30%@10ug/ml) | + (>30%@10 ug/ml) | + (>30%@10 ug/ml)
